According to IntAct's records for PubMed 12486103:

B1: Inhibitor of nuclear factor kappa-B kinase subunit beta (Homo sapiens), O14920 (parent)
chain: MSWSPSLTTQTCGAWEMKERLGTGGFGNVIRWHNQETGEQIAIKQCRQELSPRNRERWCLEIQIMRRLTHPNVVAARDVPEGMQNLAPNDLPLLAMEYCQGGDLRKYLNQFENCCGLREGAILTLLSDIASALRYLHENRIIHRDLKPENIVLQQGEQRLIHKIIDLGYAKELDQGSLCTSFVGTLQYLAPELLEQQKYTVTVDYWSFGTLAFECITGFRPFLPNWQPVQWHSKVRQKSEVDIVVSEDLNGTVKFSSSLPYPNNLNSVLAERLEKWLQLMLMWHPRQRGTDPTYGPNGCFKALDDILNLKLVHILNMVTGTIHTYPVTEDESLQSLKARIQQDTGIPEEDQELLQEAGLALIPDKPATQCISDGKLNEGHTLDMDLVFLFDNSKITYETQISPRPQPESVSCILQEPKRNLAFFQLRKVWGQVWHSIQTLKEDCNRLQQGQRAAMMNLLRNNSCLSKMKNSMASMSQQLKAKLDFFKTSIQIDLEKYSEQTEFGITSDKLLLAWREMEQAVELCGRENEVKLLVERMMALQTDIVDLQRSPMGRKQGGTLDDLEEQARELYRRLREKPRDQRTEGDSQEMVRLLLQAIQSFEKKVRVIYTQLSKTVVCKQKALELLPKVEEVVSLMNEDEKTVVRLQEKRQKELWNLLKIACSKVRGPVSGSPDSMNASRLSQPGQLMSQPSTASNSLPEPAKKSEELVAEAHNLCTLLENAIQDTVREQDQSFTALDWSWLQTEEEEHSCLEQAS
B2: Inhibitor of nuclear factor kappa-B kinase subunit alpha (Homo sapiens), O15111 (parent)
chain: MERPPGLRPGAGGPWEMRERLGTGGFGNVCLYQHRELDLKIAIKSCRLELSTKNRERWCHEIQIMKKLNHANVVKACDVPEELNILIHDVPLLAMEYCSGGDLRKLLNKPENCCGLKESQILSLLSDIGSGIRYLHENKIIHRDLKPENIVLQDVGGKIIHKIIDLGYAKDVDQGSLCTSFVGTLQYLAPELFENKPYTATVDYWSFGTMVFECIAGYRPFLHHLQPFTWHEKIKKKDPKCIFACEEMSGEVRFSSHLPQPNSLCSLVVEPMENWLQLMLNWDPQQRGGPVDLTLKQPRCFVLMDHILNLKIVHILNMTSAKIISFLLPPDESLHSLQSRIERETGINTGSQELLSETGISLDPRKPASQCVLDGVRGCDSYMVYLFDKSKTVYEGPFASRSLSDCVNYIVQDSKIQLPIIQLRKVWAEAVHYVSGLKEDYSRLFQGQRAAMLSLLRYNANLTKMKNTLISASQQLKAKLEFFHKSIQLDLERYSEQMTYGISSEKMLKAWKEMEEKAIHYAEVGVIGYLEDQIMSLHAEIMELQKSPYGRRQGDLMESLEQRAIDLYKQLKHRPSDHSYSDSTEMVKIIVHTVQSQDRVLKELFGHLSKLLGCKQKIIDLLPKVEVALSNIKEADNTVMFMQGKRQKEIWHLLKIACTQSSARSLVGSSLEGAVTPQTSAWLPPTSAEHDHSLSCVVTPQDGETSAQMIEENLNCLGHLSTIIHEANEEQGNSMMNLDWSWLTE

Variants of: B1
Conditions: with ikba_human NFKBIA

| Variant | effect of a mutation on the interaction |
| --- | --- |
| K44A | decreasing interaction |

Variants of: B2
Conditions: with ikba_human NFKBIA

| Variant | effect of a mutation on the interaction |
| --- | --- |
| K44M | disrupting interaction |
